The target in series [1] is T1, Oct4 POUHD (mouse, UniProt P20263). As to the kind of experiment: EMSA; 50 nM DNA; homodimer more efficient than full POU; EMSA buffer composition not given; 1 h at RT; gels in 1x TG, 200 V, 4 C; probes annealed in 20 mM Tris-HCl pH 8.0, 50 mM MgCl2, 50 mM KCl; protein stock 10 mM HEPES pH 7.0, 100 mM NaCl, 10% glycerol, 0.5 mM TCEP. The following applies: protein: recombinant; tags: tag cleaved by TEV (leaves G); chain copies: 2; label: 5' Cy5 or FAM on forward strand; blunt.

Series [2] concerns the target T2, Brn2 POUHD (mouse, UniProt P31360).
T2 sequence: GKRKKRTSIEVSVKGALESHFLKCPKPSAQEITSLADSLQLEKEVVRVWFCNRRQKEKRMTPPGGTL
Nature of the series: EMSA; 50 nM DNA; dimer with strongly reduced cooperativity; EMSA buffer composition not given; 1 h at RT; gels in 1x TG, 200 V, 4 C; probes annealed in 20 mM Tris-HCl pH 8.0, 50 mM MgCl2, 50 mM KCl; protein stock 10 mM HEPES pH 7.0, 100 mM NaCl, 10% glycerol, 0.5 mM TCEP. The following applies: protein: recombinant, tags: tag cleaved by TEV (leaves G), blunt.

The target in series [3] is T3, Oct4 POU (mouse, UniProt P20263). As to the kind of experiment: EMSA (single-tube dual color); FAM-CpGpal with Cy5-MORE; dimerizes more effectively on CpGpal than Brn2 does; EMSA buffer composition not given; 1 h at RT; gels in 1x TG, 200 V, 4 C; probes annealed in 20 mM Tris-HCl pH 8.0, 50 mM MgCl2, 50 mM KCl; protein stock 10 mM HEPES pH 7.0, 100 mM NaCl, 10% glycerol, 0.5 mM TCEP. Particulars: protein: recombinant; Methods: TEV-cleaved tag; label: 5' Cy5 or FAM on forward strand; blunt. For orientation: A gel shift assay detects complexes by their altered migration in electrophoresis.

Series [4] addresses T4, Brn2 POU (mouse, UniProt P31360).
T4 sequence: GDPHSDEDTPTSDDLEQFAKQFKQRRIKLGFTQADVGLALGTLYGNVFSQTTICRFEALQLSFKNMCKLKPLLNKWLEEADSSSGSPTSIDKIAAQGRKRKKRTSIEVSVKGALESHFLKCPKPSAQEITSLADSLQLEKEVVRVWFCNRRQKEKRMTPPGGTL
As to the kind of experiment: EMSA (single-tube dual color); Cy5-MORE with FAM-CpGpal; preferred, dimer; EMSA buffer composition not given; 1 h at RT; gels in 1x TG, 200 V, 4 C; probes annealed in 20 mM Tris-HCl pH 8.0, 50 mM MgCl2, 50 mM KCl; protein stock 10 mM HEPES pH 7.0, 100 mM NaCl, 10% glycerol, 0.5 mM TCEP. The following applies: protein: recombinant; tags: tag cleaved by TEV (leaves G); label: 5' Cy5 on one strand; blunt; self-complementary strand, 2 copies.

In series [5] the target is T4, Brn2 POU. Nature of the series: X-ray crystallography; 1.89 A; homodimer; 0.2 M MgCl2, pH 5.0; EMSA buffer composition not given; 1 h at RT; gels in 1x TG, 200 V, 4 C; probes annealed in 20 mM Tris-HCl pH 8.0, 50 mM MgCl2, 50 mM KCl; protein stock 10 mM HEPES pH 7.0, 100 mM NaCl, 10% glycerol, 0.5 mM TCEP. The following applies: protein: recombinant; tags: tag cleaved by TEV (leaves G); blunt; self-complementary strand, 2 copies.

Series [6] concerns the target T3, Oct4 POU. Nature of the series: EMSA; 50 nM DNA; homodimer, 5hmC no effect; EMSA buffer composition not given; 1 h at RT; gels in 1x TG, 200 V, 4 C; probes annealed in 20 mM Tris-HCl pH 8.0, 50 mM MgCl2, 50 mM KCl; protein stock 10 mM HEPES pH 7.0, 100 mM NaCl, 10% glycerol, 0.5 mM TCEP. Particulars: protein: recombinant; Methods: TEV-cleaved tag; label: 5' Cy5 on forward strand; blunt.

For series [7], the target named is T5, Brn2 POUS linker (mouse, UniProt P31360).
T5 sequence: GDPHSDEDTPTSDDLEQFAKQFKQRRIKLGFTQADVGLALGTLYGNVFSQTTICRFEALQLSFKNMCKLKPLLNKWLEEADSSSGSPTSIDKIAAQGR
As to the kind of experiment: EMSA; 50 nM DNA; EMSA buffer composition not given; 1 h at RT; gels in 1x TG, 200 V, 4 C; probes annealed in 20 mM Tris-HCl pH 8.0, 50 mM MgCl2, 50 mM KCl; protein stock 10 mM HEPES pH 7.0, 100 mM NaCl, 10% glycerol, 0.5 mM TCEP. The following applies: protein: recombinant; tags: tag cleaved by TEV (leaves G); label: 5' Cy5 on forward strand; blunt.

The target of series [8] is T2, Brn2 POUHD. As to the kind of experiment: EMSA; 50 nM DNA; high affinity, no dimer detectable; EMSA buffer composition not given; 1 h at RT; gels in 1x TG, 200 V, 4 C; probes annealed in 20 mM Tris-HCl pH 8.0, 50 mM MgCl2, 50 mM KCl; protein stock 10 mM HEPES pH 7.0, 100 mM NaCl, 10% glycerol, 0.5 mM TCEP. The following applies: protein: recombinant; tags: tag cleaved by TEV (leaves G); label: 5' Cy5 on forward strand; blunt.

Series [9] concerns the target T1, Oct4 POUHD. As to the kind of experiment: EMSA; 50 nM DNA; high affinity, homodimer also forms; EMSA buffer composition not given; 1 h at RT; gels in 1x TG, 200 V, 4 C; probes annealed in 20 mM Tris-HCl pH 8.0, 50 mM MgCl2, 50 mM KCl; protein stock 10 mM HEPES pH 7.0, 100 mM NaCl, 10% glycerol, 0.5 mM TCEP. Particulars: protein: recombinant; tags: tag cleaved by TEV (leaves G); chain copies: 2; label: 5' Cy5 on forward strand; blunt.

Series [10] addresses T3, Oct4 POU. Nature of the series: EMSA; 1 nM DNA, 1-500 nM protein; nanomolar Kd, value only in figure; monomer; EMSA buffer composition not given; 1 h at RT; gels in 1x TG, 200 V, 4 C; probes annealed in 20 mM Tris-HCl pH 8.0, 50 mM MgCl2, 50 mM KCl; protein stock 10 mM HEPES pH 7.0, 100 mM NaCl, 10% glycerol, 0.5 mM TCEP. The following applies: protein: recombinant; Methods: TEV-cleaved tag; label: 5' Cy5 on forward strand; blunt.

Series [11] concerns the target T4, Brn2 POU. As to the kind of experiment: EMSA; 1 nM DNA, 0.4-100 nM protein; nanomolar Kd, value only in figure; monomer; EMSA buffer composition not given; 1 h at RT; gels in 1x TG, 200 V, 4 C; probes annealed in 20 mM Tris-HCl pH 8.0, 50 mM MgCl2, 50 mM KCl; protein stock 10 mM HEPES pH 7.0, 100 mM NaCl, 10% glycerol, 0.5 mM TCEP. The following applies: protein: recombinant; tags: tag cleaved by TEV (leaves G); label: 5' Cy5 on forward strand; blunt.

Series [12] concerns the target T1, Oct4 POUHD. Nature of the series: EMSA; 50 nM DNA; homodimer, minor effect of methylation; EMSA buffer composition not given; 1 h at RT; gels in 1x TG, 200 V, 4 C; probes annealed in 20 mM Tris-HCl pH 8.0, 50 mM MgCl2, 50 mM KCl; protein stock 10 mM HEPES pH 7.0, 100 mM NaCl, 10% glycerol, 0.5 mM TCEP. The following applies: protein: recombinant; tags: tag cleaved by TEV (leaves G); chain copies: 2; label: 5' Cy5 on forward strand; blunt.

Series [13] has as its target T3, Oct4 POU. Nature of the series: EMSA; 50 nM DNA, 25-800 nM protein; cooperative homodimer; EMSA buffer composition not given; 1 h at RT; gels in 1x TG, 200 V, 4 C; probes annealed in 20 mM Tris-HCl pH 8.0, 50 mM MgCl2, 50 mM KCl; protein stock 10 mM HEPES pH 7.0, 100 mM NaCl, 10% glycerol, 0.5 mM TCEP. Particulars: protein: recombinant; Methods: TEV-cleaved tag; label: 5' Cy5 on forward strand; blunt.

Experimental findings from PMC9943670, “The homeodomain of Oct4 is a dimeric binder of methylated CpG elements” are described below.

T3 sequence (P20263 other isoform, or with tags, fused parts or gaps): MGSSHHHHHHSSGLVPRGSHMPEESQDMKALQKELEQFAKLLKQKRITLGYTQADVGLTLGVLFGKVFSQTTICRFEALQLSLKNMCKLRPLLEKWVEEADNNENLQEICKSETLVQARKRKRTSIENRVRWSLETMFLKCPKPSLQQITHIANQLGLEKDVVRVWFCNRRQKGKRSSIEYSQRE
T1 sequence (P20263 other isoform, or with tags, fused parts or gaps): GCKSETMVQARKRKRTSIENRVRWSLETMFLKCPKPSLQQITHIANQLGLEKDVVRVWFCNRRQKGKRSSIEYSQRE

B1: CpGpal fully methylated (dsDNA)
DNA 1: GCCGCCTTATGCGCATAAGCCGCCGC
DNA 2: GCGGCGGCTTATGCGCATAAGGCGGC
modifications: 5mC at the central CpG (ATG5mCGCAT), both strands
As to B1, the binding result in [1], in [2] (label: 5' Cy5 or FAM on forward strand) and in series [3] was “binds” each time.

B2: MORE (dsDNA)
DNA 1: TCCTCATGCATATGCATGAGGA
DNA 2: TCCTCATGCATATGCATGAGGA
Regarding B2, the binding result in [4] is on record as “binds”.

B3: MORE (crystal) (dsDNA)
DNA 1: TCCTCATGCATATGCATGAGGA
DNA 2: TCCTCATGCATATGCATGAGGA
For B3, the binding result in series [5] is reported as “binds”.

B4: CpGpal 5hmC (dsDNA)
DNA 1: GCCGCCTTATGCGCATAAGCCGCCGC
DNA 2: GCGGCGGCTTATGCGCATAAGGCGGC
modifications: 5hmC at the central CpG; strands carrying the mark not given
Regarding B4, in series [6], the binding result is recorded as “binds”.

B5: Octamer (dsDNA)
DNA 1: GGCGGCGGATGCAAATCGGCGGCGG
DNA 2: CCGCCGCCGATTTGCATCCGCCGCC
With B5, the binding result in series [7] is listed as “no binding”; in series [8], “binds”; in series [9] it was “binds”; in series [10] it was “binds”; in series [11], “binds”.

B6: CpGpal unmethylated (dsDNA)
DNA 1: GCCGCCTTATGCGCATAAGCCGCCGC
DNA 2: GCGGCGGCTTATGCGCATAAGGCGGC
For B6, the binding result in series [12], in series [13] and in [2] (label: 5' Cy5 on forward strand) was “binds” throughout.
